US20220403048A1, “BINDING MOLECULES TO ARGINASE II [ARG2]” (Cancer Research Technology Limited, priority 2019, published 2022)
Where a chain is given by its changes, count along the chain named.

Tests used:
[1] = molecular target: T1, ARG2 (Homo sapiens, UniProt P78540); test: T cell proliferation assay (BrdU, 72 hours) with exogenous ARG2; type: cell-based; details: In Absence of rhARG2
T1 sequence (P78540 23-354): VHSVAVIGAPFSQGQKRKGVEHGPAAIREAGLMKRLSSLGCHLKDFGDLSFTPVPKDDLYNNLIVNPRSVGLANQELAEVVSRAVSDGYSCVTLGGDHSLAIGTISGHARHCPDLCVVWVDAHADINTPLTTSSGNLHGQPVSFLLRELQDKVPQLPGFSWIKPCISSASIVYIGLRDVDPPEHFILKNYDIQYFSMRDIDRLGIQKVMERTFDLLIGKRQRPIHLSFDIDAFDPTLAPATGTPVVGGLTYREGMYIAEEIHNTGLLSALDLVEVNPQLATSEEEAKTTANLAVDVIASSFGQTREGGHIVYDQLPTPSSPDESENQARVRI
Experimental: This assay served to provide in vitro evidence of functional efficacy for each antibody.
Briefly, Leukocyte cones (NHS Blood and Transplant, Watford, UK) underwent Ficoll Plaque (GE, Sweden; Cat: 17-1440-02) gradient separation, PBMC's were extracted and pan T cell population isolated by negative selection using the Human T Cell Enrichment Kit (Stemcell Technologies, France; Cat: 19051) according to the manufacturer's instructions.
40000 cells/well were seeded in complete growth media (RMPI 1640, 5% Human Serum Albumin) into a 96 well clear TC treated microplate (Greiner-Bio One, Germany; Cat: 655180). T Cells were activated by the addition of ImmunoCult CD3/CD28 (Stemcell Technologies, France; Cat: 10971) at a dilution of 1:40 directly into wells and the plate incubated 37° C., 5% CO2 for 45 minutes.
To determine EC50's of test antibodies, a dilution series was created in sterile TBS at 8× the final assay concentration was added to the assay plate containing cells. Plate was incubated for 30 minutes at 37° C., 5% CO2.
ARG2 was added to relevant wells of the plate at a final concentration of 15 μg/ml. The equivalent volume of ARG2 vehicle and test antibody vehicle was added to relevant control wells. […]
Calculated data was expressed as % of control (Equation 3) and graphical plots were constructed using a four parameter fit and EC50's determined using model 205 in XLFit (IDBS, UK). […]

[2] = molecular target: T2, THP-1 lysate derived human trimeric ARG2 (Homo sapiens, UniProt P78540); test: THP-1 lysate derived human ARG2 enzyme inhibition assay; type: biochemical; details: recombinant human IgG1, lysate without plasma (section 3.3), FIG. 13; read-out: THP-1 lysate ARG2 EIA IC50
T2 construct: expressed in transfected cells; host or cells: THP-1 cells overexpressing human ARG2 (cell lysate)
T2 sequence (P78540 23-354): T1 sequence (P78540 23-354)
Experimental: Anti-ARG2 IgGs were tested for their ability to inhibit mammalian expressed human ARG2 produced in transfected THP-1 cells. To do this cell lysates were prepared from THP-1 cells overexpressing human ARG2 and from wild type THP-1 cells. 350 million cells were suspended in 3 ml tris buffered saline (25 mM Tris+150 mM sodium chloride in dH2O, pH 7.4) and cell lysates prepared by passing through a 26G needle 20 times. A BCA assay was used to measure the protein concentration in the lysate. […] Antibodies were tested alongside N-Hydroxyl-L-Arginine (a small molecule competitive inhibitor of ARG2) as a positive control and CEA6 (irrelevant isotype control antibody) as a negative control. Data points were plotted and IC50 values determined using a four parameter fit in GraphPad Prism (FIG. 11, Table 13).
Anti-ARG2 IgGs were tested for their ability to inhibit to mammalian expressed human ARG2 produced in transfected THP-1 cells. […] Urea detection reagents, O-Phthaldialdehyde (1.5 mM O-Phthaldialdehyde, 7% H2SO4, 0.03% Brij L23) and N-(1-Napthyl)ethylenediamine (1.66 mM N-(1-Napthyl)ethylenediamine, 81 mM Boric acid, 21% H2SO4, 0.03% Brij L23) were mixed 1:1 just prior to use and 80 μl/well were added, incubated for 1 hour at room temperature and absorbance at 505 nm was read on a Pherastar plate reader. […]

[3] = molecular target: T1, ARG2; test: Dynamic light scattering of ARG2-Fab complex sizes; design: human ARG2 (aa23-354); His10 (C); made in house; host or cells: E. coli BL21 (DE3); details: FIG. 23B
Experimental: ARG2 and Fabs were analysed at concentrations of 8 μM (referring to monomers) in buffer containing 25 mM tris at pH 7.4 and 150 mM NaCl (FIG. 23). ARG2-Fab complexes were formed by mixing both ARG2 and Fabs at concentrations of 8 μM (referring to monomers) and incubation on ice for 1 h. Dynamic light scattering (DLS) was performed on a Zetasizer Ultra (Malvern Panalytical) using multiangle DLS. Data was collected in a 3×3 mm cuvette (Hellma Analytics) using a sample volume of 30 μl. Volume weighted size-distributions were corrected for refractive index, viscosity, and background scatter of the buffer by the instrument software.

B1: C0020065: anti-ARG2 antibody, alternate lead isolation clone, VH SEQ ID NO: 2, VL SEQ ID NO: 7 (antibody, listed as Homo sapiens, V domains shown)
VH: GVNLRESGGGVVQPGRSLRLSCAASGFTFSSYAMHWVRQAPGKGLEWVAVISYDGSNKYYVDSVKGRFTISRDNSKNTLYLQMNSLRAEDTAVYYCARDSSQLWFDYWGRGTLVTVSS
VL: QSVVTQPPSVSGAPGQRVTISCTGSSSNIGTGYDVHWYQQLPGTAPKLLIYGNSNRPSGVPDRFSGSKSGTSASLAITGLQAEDEADYYCQSYDSSLSGSVVFGGGTQLTVL
modifications: C0020065
- EC50 [1]: < 0.8 nM
- Maximum % Proliferation [1]: 82%

B2: C0021158: anti-ARG2 antibody, second generation lead, VH SEQ ID NO: 272, VL SEQ ID NO: 277 (antibody, listed as Homo sapiens, V domains shown)
VH: EVQLLESGGGLVQPGGSLRLSCAASGFTFRYEVAAWVRQAPGKGLEWVSAISGPIPKGYYADSVKGRFTISRDNSKNTLYLQMNSLRAEDTAVYYCARLRADLGLYMDLWGRGTLVTVPS
VL: QSVLTQPPSVSAAPGQKVTISCSGSSSNIGNHYVSWYQQLPGTAPKLLIYDNSERTAGVPDRFSGSKSGTSATLGITGLQTGDEADYYCGTWDELTSNLVFGGGTKLTVL
modifications: C0021158
- IC50 [2]: 5.36 nM

B3: C0021139: anti-ARG2 antibody, VH SEQ ID NO: 212, VL SEQ ID NO: 217 (antibody, listed as Homo sapiens, V domains shown)
VH: EVQLLESGGGLVQPGGSLRLSCAASGFTFQYDYQVWVRQAPGKGLEWVSAISGSGGSTYYADSVKGRFTISRDNSKNTLYLQMNSLRAEDTAVYYCARLRADLGLYMDLWGRGTLVTVSS
VL: B2 VL with A57S, V59I
modifications: C0021139
- increase in average hydrodynamic radius (Rh) of ARG2-Fab complexes in comparison with ARG2-C0020187 Fab complexes [3]: 1.5 nm
